Residue numbers refer to the chain shown, from its start.
B1: CL-437092 (antibody, V domains shown)
VH: QVQLVESGGGVVQPGGSLRLSCAASGFTLSSFGIHWVRQAPGKGLEWVALIWHDGSMKYYADSVKGRFTISRDNSKNTVDIQMNSLRVEDTAVYYCARPGIGSPGDHYTMDVWGHGTTVTVSS
VL: not shown
modifications: peptides N-terminally acetylated and C-terminally amidated
B2: CL-510458 (antibody, V domains shown)
VH: QVQLVESGGGVVQPGRSLRLSCAASGFTFNNYGMHWVRQAPGKGLEWVAVIWYDGSNKFHADSVKGRFTISRDNSKNTLYLQMNSLRAEDTALYYCARVYYYDSGSYLDYWGQGTLVTVSS
VL: DIQMTQSPSSVSASVGDRVTITCRASQGISRWLAWYQQKPGKAPKLLIYAASSLQSGVPSRFSGSGSGTDFTLTISSLQPEDFATYCCQQANNFPWTFGQGTKVEIK
modifications: peptides N-terminally acetylated and C-terminally amidated
B3: CL-460369 (antibody, V domains shown)
VH: QVQLVESGGGVVQPGRSLRLSCAASGFTFSNYGMHWVRQAPGKGLEWVGIIWYDGSNKYYIDSVKGRFTISRDNSRNTLYLQINSLRAEDTAVYYCARDGGWNDDYYYVMDVWGQGTTVTVSS
VL: DIVMTQSPDSLAVSLGEGATINCKSSQSVLYSSNNKNYLAWYQQKPGQPPKVLIYWASIRESGVPDRFSGSGSGTDFTLTISSLQAEDVAVYYCQQYYSMCSFGQGTKLEIK
modifications: peptides N-terminally acetylated and C-terminally amidated
B4: CL-509326 (antibody, V domains shown)
VH: QVYLVESGEGVVQPGRSLRLSCAASGFTFSNYGMHWVRQAPGKGLEWVAVIWYNGNNKFYADSVKGRFTISRDNSKNTLFLQMNSLRAEDTAVYFCARSGYSRSSYFDYWGQGTLVTVSS
VL: QSVLTQPPSVSGAPGQRVTISCTGSSSNIGAVYDVHWYQQLPGTAPKLLIYGNTNRPSGVPDRFSGSQSGTSASLAITGLQAEDEADYYCQSYDSSLSGSVFGGGTKLTVL
modifications: peptides N-terminally acetylated and C-terminally amidated
B5: CL-441816 (antibody, V domains shown)
VH: QEQLVESGGGVVQPGRSLRLSCATSGFTFSTYGLHWVRQSPGKGLEWVTVIWYDGSNKFYADSVKGRFTISRDNSKNTLYLQMNSLRAEDTAVYYCARALYSSRWYGAFDIWGQGTMVTVSS
VL: B4 VL with V32G, Q40L, T54S, Q68K, D94I, S95R
modifications: peptides N-terminally acetylated and C-terminally amidated
B6: CL-511026 (antibody, V domains shown)
VH: QVQLVESGGGVVQPGRSLRLSCAASGFTFSNFGMHWVRQAPDRGLEWVSIIWYDGSNKFYADSVKGRFTISRDNSKNTLFLQMDSLRAEDTAVYYCAKAEMRTSDYYNYGMDVWGQGTTVTVSS
VL: DIQMTQSPSTLSASVGDRVTITCRASQSISSWLAWYQQKPGKAPKLLIYKASSLESGVPSRFSGSGSATEFTLTIRSLQPDDFATYYCQQYYSYWTFGQGTKVEIN
modifications: peptides N-terminally acetylated and C-terminally amidated
B7: CL-510487 (antibody, V domains shown)
VH: QVQLEESGGGVVQPGRSLRLSCTATGFTFSNYGMHWVRQAPGRGLEWVGVIWYDGSNKFYVDSVKGRFTISRDNSKNTLYLQMNSLRAEDTAVYYCARDGGYYGSGSYWWFDSWGQGTLVTVSS
VL: B6 VL with S56R, A68G, R76S, Y92N, S93R, W95C, T96S, V103L, N106K
modifications: peptides N-terminally acetylated and C-terminally amidated
B8: Ky15.5 (antibody, V domains shown)
VH: QVQMVASGGGVVQPGRSLRLSCAVSGFTFRNFGMHWVRQDPGRGLEWVAIIWYDGSYEFYADSVKGRFTISRDNSKNTLYLQMNSLRAEDTAVYYCARSYGSLTGDETKYGMDVWGQGTTVTVSS
VL: B6 VL with Y36F, A68G, R76S, Y92K, S93N, N106K
modifications: peptides N-terminally acetylated and C-terminally amidated
B9: CL-444653 (antibody, V domains shown)
VH: QVQLVESGGGVVQPGRSLRLSCTASGFTFSTYGMHWVRQAPGKGLEWVAIIWYDGGNKFYADSVKGRFTISRDNSKDTLYLQMNSLRAEDTAVYYCAKAWYKVDDKYSMDVWGQGTTVTVSS
VL: B6 VL with A68G, R76S, S77G, Y92I, S93N, N106K
modifications: peptides N-terminally acetylated and C-terminally amidated
B10: CL-512275 (antibody, V domains shown)
VH: QVQLVESGGGVVQPGGSFRLSCETSGFTFSNFGMHWVRQAPGKGLEWVALIWYDGSHKFYADSLTGRFTISRDNSKNTLYLQMNSLRVEDTAVYYCARAHSVTTANDKYGTDVWGQGTTVTVSP
VL: B6 VL with Q38H, K42R, V58I, A68G, R76S, Y87F, Y92N, N106K
modifications: peptides N-terminally acetylated and C-terminally amidated
B11: CL-512011 (antibody, V domains shown)
VH: B10 VH with G16R, F18L, E23V, N31S, S101A, T121N
VL: B6 VL with Q38H, K42N, S53N, A68G, R76S, Y87F, Y92N, I105V, N106K
modifications: peptides N-terminally acetylated and C-terminally amidated
B12: CL-464181 (antibody, V domains shown)
VH: QVQLVESGGGAVQAGTSLRLSCAASGFSFSYNGMHWVRQGPGKGLEWVAIIWYDGGNKFYADSVKGRFTISRDNSKKMLYLQMNRLRAEDTAVYYCARAWNFADNKYSMDVWGQGTTVTVSA
VL: B6 VL with S31C, K45Q, A68G, R76S, S93I, E104D, N106K
modifications: peptides N-terminally acetylated and C-terminally amidated
B13: CL-513617 (antibody, V domains shown)
VH: QVQLVESGGGVVQPGRSLRLSCAASGFIFSNYGMYWVRQTPDKGLEWVALIWYDGGNKFYSDSVKGRFTVSRDNSKNTLYLQMNSLRDEDTALYYCARAGYFYGSGSSLDKWGQGTLVTVSS
VL: B6 VL with T20S, S31I, A68G, T72S, R76S, Y92N, S93R, N106K
modifications: peptides N-terminally acetylated and C-terminally amidated
B14: CL-462788 (antibody, V domains shown)
VH: QVQLVESGGGVVQPGRSLRLSCAASGFTFRNYGMHWVRQAPGKGLEWVAIIWYDGSYKFYADSVKGRFTISRDNSKNTLYLQMNSLRAEDTAMYYCARDDALELRSFDIWGQGTMVTVSS
VL: DVVMTQSPLSLPVTLGQPASISCRSSQSLVYSDENTYLSWFQQRPGQSPRRLIYKISNRDSGVPDRFSGSGSGTDFTLKISRVEAEDVGVYYCMQGTHWPRTFGQGTEVEIK
modifications: peptides N-terminally acetylated and C-terminally amidated
B15: CL-514716 (antibody, V domains shown)
VH: QIQLVESGGGVVQPGRSLRLSCAASGFTFSTYGMHWVRQAPGKGLEWVAVIWYDGSNKYYADSVQGRFTISRDNSKNTLYLQMNSLRAEDTAIYYCTTVGPIPFDYWGQGTLVTVSS
VL: DIVMTQTPLSSPVILGQPASISCRSSQSLVHSSGNTYLSWLQQRPGQPPRLLIYKTFKRLSGVPDRFSGSGAGTDFTLKISRVEAEDVGVYYCLQSTQFPLTFGGGTKVEIK
modifications: peptides N-terminally acetylated and C-terminally amidated
B16: CL-509880 (antibody, V domains shown)
VH: QVQLVESGGGVVQPGRSLRLSCAASGFTFSNSGMHWVRQAPGKGLEWVAVIWYDGSNKYYADSVKGRFTVTRDNSKNTLYLQMNSLRAEDTAVYYCVRAYYGSGSYHFKYGMDVWGQGTTVTVSS
VL: not shown
modifications: peptides N-terminally acetylated and C-terminally amidated
B17: CL-510427 (antibody, V domains shown)
VH: QVQLVESGGGVVQPGRSLRLSCAASGFTFSNYGMHWVRQAPGKGLEWVAVIWYDGSKEDYADSVKGRLTISRDNSKNTLYLQMNSLRAEDTAVYYCARDGDSRGWYAFDYWGQGTLVTVSS
VL: not shown
modifications: peptides N-terminally acetylated and C-terminally amidated

Each binder was assayed against PfCSP full length (Plasmodium falciparum (isolate NF54), UniProt P19597) (assay: ELISA AUC).
Chain of PfCSP full length (P19597 20-375): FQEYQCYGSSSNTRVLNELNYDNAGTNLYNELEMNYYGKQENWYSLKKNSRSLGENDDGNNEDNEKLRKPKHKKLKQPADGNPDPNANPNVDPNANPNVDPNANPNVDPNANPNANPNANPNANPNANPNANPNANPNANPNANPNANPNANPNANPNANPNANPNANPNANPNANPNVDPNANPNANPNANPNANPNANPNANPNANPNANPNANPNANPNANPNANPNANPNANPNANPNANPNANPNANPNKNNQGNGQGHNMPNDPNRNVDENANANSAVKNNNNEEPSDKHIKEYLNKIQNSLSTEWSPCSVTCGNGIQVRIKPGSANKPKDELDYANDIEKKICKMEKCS

First: B1
Second: B2
The binding score of the first is higher: 2.5 for the first, 2 for the second.

Compared with B3, B4 is lower in binding score: 2.3 for the first, 2.19 for the second.

Compared with B5, B6 is lower in binding score: 2.4 for the first, 2.08 for the second.

Going from B7 to B8, the binding score rises from 1.83 to 2.4.

Compared with B9, B10 is higher in binding score: 2.3 for the first, 2.54 for the second.

Going from B11 to B12, the binding score falls from 2.5 to 2.4.

Compared with B13, B14 is lower in binding score: 2.59 for the first, 2.3 for the second.

Going from B15 to B16, the binding score rises from 1.75 to 1.97.

In the case of B17, the binding score is reported as 2.39.

Source: paper PMC10720262 (2023)
